Experimental data reported in paper PMC7299343, “Two forms of Opa1 cooperate to complete fusion of the mitochondrial inner-membrane” (eLife, 2020).
Changes are numbered by the printed parent chain. Numbers in names are those of the source.

B1: short form of human Opa1 (s-Opa1, S1 form), wild type (natural protein, UniProt O60313-1 195-960, looked up)
chain: ATDRGSESDKHFRKVSDKEKIDQLQEELLHTQLKYQRILERLEKENKELRKLVLQKDDKGIHHRKLKKSLIDMYSEVLDVLSDYDASYNTQDHLPRVVVVGDQSAGKTSVLEMIAQARIFPRGSGEMMTRSPVKVTLSEGPHHVALFKDSSREFDLTKEEDLAALRHEIELRMRKNVKEGCTVSPETISLNVKGPGLQRMVLVDLPGVINTVTSGMAPDTKETIFSISKAYMQNPNAIILCIQDGSVDAERSIVTDLVSQMDPHGRRTIFVLTKVDLAEKNVASPSRIQQIIEGKLFPMKALGYFAVVTGKGNSSESIEAIREYEEEFFQNSKLLKTSMLKAHQVTTRNLSLAVSDCFWKMVRESVEQQADSFKATRFNLETEWKNNYPRLRELDRNELFEKAKNEILDEVISLSQVTPKHWEEILQQSLWERVSTHVIENIYLPAAQTMNSGTFNTTVDIKLKQWTDKQLPNKAVEVAWETLQEEFSRFMTEPKGKEHDDIFDKLKEAVKEESIKRHKWNDFAEDSLRVIQHNALEDRSISDKQQWDAAIYFMEEALQARLKDTENAIENMVGPDWKKRWLYWKNRTQEQCVHNETKNELEKMLKCNEEHPAYLASDEITTVRKNLESRGVEVDPSLIKDTWHQVYRRHFLKTALNHCNLCRRGFYYYQRHFVDSELECNDVVLFWRIQRMLAITANTLRQQLTNTEVRRLEKNVKEVLEDFAEDGEKKIKLLTGKRVQLAEDLKKVREIQEKLDAFIEALHQEK
notes: OPA1, human, short form corresponding to the S1 form that results from Oma1 cleavage, residues 195-960 of UniProt O60313-1, codon optimized for Pichia pastoris; Construct: Twin-Strep-tag, HRV 3C site, (G4S)3 linker at the N-terminus; (G4S)3 linker, TEV site, deca-histidine tag at the C-terminus; His tag said to be cleaved with TEV in all the functional assays; also called WT s-Opa1; …
B2: G300E mutant of s-Opa1 (s1) (natural protein, human, UniProt O60313-1 195-960, looked up)
chain: B1 chain with G106E
notes: OPA1, human, short form (S1), residues 195-960 of UniProt O60313-1, with G300E; same tags and linkers as m2; also called G300E s-Opa1; sOPA1 (G300E); source: Pichia pastoris SMD1163, purified
B3: long form of human Opa1 (l-Opa1), wild type (natural protein, UniProt O60313-1 88-960, looked up)
chain: FWPARLATRLLKLRYLILGSAVGGGYTAKKTFDQWKDMIPDLSEYKWIVPDIVWEIDEYIDFEKIRKALPSSEDLVKLAPDFDKIVESLSLLKDFFTSGSPEETAFRATDRGSESDKHFRKVSDKEKIDQLQEELLHTQLKYQRILERLEKENKELRKLVLQKDDKGIHHRKLKKSLIDMYSEVLDVLSDYDASYNTQDHLPRVVVVGDQSAGKTSVLEMIAQARIFPRGSGEMMTRSPVKVTLSEGPHHVALFKDSSREFDLTKEEDLAALRHEIELRMRKNVKEGCTVSPETISLNVKGPGLQRMVLVDLPGVINTVTSGMAPDTKETIFSISKAYMQNPNAIILCIQDGSVDAERSIVTDLVSQMDPHGRRTIFVLTKVDLAEKNVASPSRIQQIIEGKLFPMKALGYFAVVTGKGNSSESIEAIREYEEEFFQNSKLLKTSMLKAHQVTTRNLSLAVSDCFWKMVRESVEQQADSFKATRFNLETEWKNNYPRLRELDRNELFEKAKNEILDEVISLSQVTPKHWEEILQQSLWERVSTHVIENIYLPAAQTMNSGTFNTTVDIKLKQWTDKQLPNKAVEVAWETLQEEFSRFMTEPKGKEHDDIFDKLKEAVKEESIKRHKWNDFAEDSLRVIQHNALEDRSISDKQQWDAAIYFMEEALQARLKDTENAIENMVGPDWKKRWLYWKNRTQEQCVHNETKNELEKMLKCNEEHPAYLASDEITTVRKNLESRGVEVDPSLIKDTWHQVYRRHFLKTALNHCNLCRRGFYYYQRHFVDSELECNDVVLFWRIQRMLAITANTLRQQLTNTEVRRLEKNVKEVLEDFAEDGEKKIKLLTGKRVQLAEDLKKVREIQEKLDAFIEALHQEK
notes: OPA1, human, long form, residues 88-960 of UniProt O60313-1 (isoform 1), codon optimized for Pichia pastoris; Construct: Twin-Strep-tag, HRV 3C site, (G4S)3 linker at the N-terminus; (G4S)3 linker, TEV site, deca-histidine tag at the C-terminus; also called WT l-Opa1; TwinStrep-lOPA1-H10

Tests used:
[1] = molecular target: the molecule itself; assay: native gel or EMSA; Blue native PAGE (BN-PAGE), 3-12% Bis-Tris gradient gels, sample buffer with 0.25% Coomassie G-250 and 1 mM DDM, cathode buffer with 1 mM DDM, 4 °C; mixtures of l-Opa1 and s-Opa1 incubated on ice for 10 min before loading
[2] = molecular target: B3; assay: as above; settings: both partners purified

binding result [2] | Binder | binding result [1]
 | B1 | binds
binds | B2 | 
 | B3 | binds
